Measurements from paper PMC9536298.

Target: T1, GST-ZPR1 (human, UniProt O75312 1-459)
T1 sequence: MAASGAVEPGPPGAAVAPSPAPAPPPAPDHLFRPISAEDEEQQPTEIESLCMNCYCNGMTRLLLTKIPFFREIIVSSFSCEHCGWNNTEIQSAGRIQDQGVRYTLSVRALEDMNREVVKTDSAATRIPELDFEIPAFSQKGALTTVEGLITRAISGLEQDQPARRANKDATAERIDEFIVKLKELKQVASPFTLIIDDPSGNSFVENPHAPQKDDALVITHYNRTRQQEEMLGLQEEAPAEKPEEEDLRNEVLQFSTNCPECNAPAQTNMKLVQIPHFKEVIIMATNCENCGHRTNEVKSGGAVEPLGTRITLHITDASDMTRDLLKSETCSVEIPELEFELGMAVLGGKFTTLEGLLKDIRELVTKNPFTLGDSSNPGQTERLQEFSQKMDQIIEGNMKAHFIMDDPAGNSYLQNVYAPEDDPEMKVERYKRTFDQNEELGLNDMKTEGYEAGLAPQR
Experiment: EMSA

## CGAAACTACCTTCAACTCCATCATGAAGTGTGACGTGGAC (ssDNA) [DNA* 40 nt]
  binding result: binds
